Results taken from paper PMC4226670, “TAp73 promotes cell survival upon genotoxic stress by inhibiting p53 activity”.

Biological target: T1, GST-TAp73α (UniProt O15350 1-636)
T1 sequence: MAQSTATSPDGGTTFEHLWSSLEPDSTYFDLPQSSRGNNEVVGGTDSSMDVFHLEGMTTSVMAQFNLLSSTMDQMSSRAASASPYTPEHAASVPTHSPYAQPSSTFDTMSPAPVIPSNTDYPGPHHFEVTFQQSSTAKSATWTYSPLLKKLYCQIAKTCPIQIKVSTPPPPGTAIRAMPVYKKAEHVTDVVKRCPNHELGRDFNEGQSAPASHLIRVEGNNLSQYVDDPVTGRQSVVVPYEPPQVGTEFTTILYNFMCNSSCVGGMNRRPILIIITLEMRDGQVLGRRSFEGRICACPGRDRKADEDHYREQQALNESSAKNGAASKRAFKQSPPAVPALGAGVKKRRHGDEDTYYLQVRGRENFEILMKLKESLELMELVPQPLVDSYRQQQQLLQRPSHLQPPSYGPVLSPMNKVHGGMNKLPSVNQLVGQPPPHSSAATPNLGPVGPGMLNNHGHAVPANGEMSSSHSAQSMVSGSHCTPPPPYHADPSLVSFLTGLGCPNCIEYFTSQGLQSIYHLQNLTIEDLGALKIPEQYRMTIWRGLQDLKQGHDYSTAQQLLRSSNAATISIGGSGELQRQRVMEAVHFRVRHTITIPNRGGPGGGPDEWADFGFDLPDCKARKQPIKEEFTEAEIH
Experiment: fluorescence polarization; FP: 4 nM FAM duplex, 100 mM NaCl, 10 mM Tris-HCl pH 7.5, 10% glycerol, 5 mM DTT, 0.2 mg/mL BSA, room temperature; pull-down: 2 ug duplex with lysate, 90 min room temperature, then streptavidin beads 2 h 4 C
Conditions: protein: commercial; tags: GST; chain copies: 4; label: 5' 6-FAM on strand 1; blunt

B1: PUMA promoter duplex, FAM (dsDNA)
DNA 1: CGCGCCTGCAAGTCCTGACTTGTCCGCGGC
DNA 2: GCCGCGGACAAGTCAGGACTTGCAGGCGCG
Work on B1 yielded a Kd of 87.1 nM.
